Assay results from paper PMC9202514.

Substrate: Nc1ncnc2c1ncn2[C@@H]1O[C@H](COP(=O)(O)OP(=O)(O)OP(=O)(O)O)[C@@H](O)[C@H]1O
Assay: DIPP1-coupled Pi-release malachite green assay
Format: biochemical, Zea mays
Settings: 25 μM InsP6, 3.5 mM MgCl2, 100 mM KCl, pH 7.2, 25 °C

B1: ZmITPK1 (Zea mays) (protein)
chain: MASDAAAEPSSGVTHPPRYVIGYALAPKKQQSFIQPSLVAQAASRGMDLVPVDASQPLAEQGPFHLLIHKLYGDDWRAQLVAFAARHPAVPIVDPPHAIDRLHNRISMLQVVSELDHAADQDSTFGIPSQVVVYDAAALADFGLLAALRFPLIAKPLVADGTAKSHKMSLVYHREGLGKLRPPLVLQEFVNHGGVIFKVYVVGGHVTCVKRRSLPDVSPEDDASAQGSVSFSQVSNLPTERTAEEYYGEKSLEDAVVPPAAFINQIAGGLRRALGLQLFNFDMIRDVRAGDRYLVIDINYFPGYAKMPGYETVLTDFFWEMVHKDGVGNQQEEKGANHVVVK
Km: 364 µM
